In the DeepSol protein solubility set:

test: soluble on expression in E. coli; label from the status in PepcDB or PDB records

Soluble on expression in E. coli, not soluble:
MGSDKIHHHHHHMIASPEPEYLTPEEYLQLEEASPIKHEYINGYAYAMAGATDAHVTVAGNLFVLLRNHVRGSGCRVYIADMKARIESLNRYYYPDVMVTCDQRDQETPNHKRFPCLIVEVLSNSTEAFDRGDKFVDYQEIETLKEYVLINTKRQRVECFKRGDHGLWILQSYTEQDKIFRLNSVDFEGAIAELYEDVIFEQTTL
MGSDKIHHHHHHMIDNIMAILEPVIGRTIKRKISTMSGKKLPFIAGHKLLYTCNLRCDMCPFWRRKDEKLLSLEEEIKMMDSLASAGVSFMGFEGGEPLLRNDLEDILKESHKRFHTSLVTNGWLLKGRASSISRYLDYLFVSIDGRKETHDKQRGVPSSFDHAIEGIKEAKKYVPVAMSTTITTNNMDDIKYVVNLAEELGIGVNIQVSYDYSTADKLSPDRKKLYDLLLDLKKMKEDGAPIVNSKEYFDTLVNSWYYGIPWACKPWSTVNIDPQGRIVMPCYVLNEYAGEKKVWEIDIKELWNTYDWKPYESCNKCSLSCYLEPSIFSWRKPSMVSERIFGSIADYIASIF
MGSDKIHHHHHHMIDVLVIGGGNAALCAALTAREAGASVTLLEAAPREWRGGNSQHTRNLRCMHDEPQDVLVDAYPEEEFWQDLLKVTGGITDEHLARLVIRHSSSCRDWMRRHGVNFQPPLSGTLHLSRTNAFFMGGGKALVNAYYRSARQLGVEIRYETPVDSLELDDNGNFIAAHTSSGRIEARSCVLACGGFESNREWLREAWGQNERGEWPGENFLIRGTRFNQGVLLKFLMQHGADIIGDPSQGHCVAIDARAPLYDGGICTRIDCVSLGIVVNRDAVRFYDEGEDFWPKRYAIWGRLTALQPGQIAYSIIDAKAIGRFMPPVFPGIQADTLPELARKIGLDEAQFVQTVETYNAACRIGTFDHTVLDDCHTENLQPAKTHWARPIDTGPFYAFAVRPGITFTYLGLKVDETAAVRFNGRPSENLFVAGEMMAGNVLGKGYTAGVGMSIGTAFGRIAGTQAAKAALQRHQTGALHEAA
MGSDKIHHHHHHMIEIGKRCTLEIVKRVDFGVYLNAHEFGQVLLPNKVAPQGCEVGDSVEVFLYLDSEDMVIATTKRPKAQVGQFAYLKAVATGPYGAFLDWGLDKDLMLPFGEQHREIEVGRSYLVYVYVNSADDRIVASSKIDKFLDRTPPPYRNGQEVSLIIAGTTDLGYKAIIDNGHWGVLYKNEVYQPLKFGQRIKGFIKRVRSDDKIDLILQRGAKEELDKHATAILMKLNQAGGFLPLTDKTDAEVIYAELAMSKKAFKKSIGGLYKQQKIAIEADGIRLTE
MGSDKIHHHHHHMIELDNIKICPLAGIDDAIIIQSLNKASLTTSTSAIGPAVAEMVTRHGAVLLRGFAPEGTSAMAALFASLQWKPLQYTYRSTPRTSVSEGIYTATEFPASEEIMLHSENAFQADWPTRIGFHCAVPARAGGETPIGSLEKITARIDTGLFDEFRRRGVSYVRNYSDYVDLPWQVVFQSSDRGDVEEYCKNHGIGFEWRNSGLRTWQACQGTATHPERGNEVWFNQAHMFHYTALGPEMASNLLSIFGEEELPRNAYYGDGGVIPKDAVEHIREAFSAERASFGWEKDDILLLDNMRYCHGRNPFEGPRQVLVSMGRGYASVVDSSH
MGSDKIHHHHHHMIELERVCKDYHTRQGMRRVLNRIDLRVKQGEKVGILGRNGAGKSTLIRMISGAELPTEGRIRRSMNVSWPLAFGGAFQGSLTGMDNLRFICRVYGADPKAAEPFVQEFSELGYYLREPVKSYSAGMRARLAFAISMAIEFDCFLIDEIVAVGDSRFHAKCHHELFEQRKDRALIIVSHDASYIRQHCDRASVLIEGKLHSFDSVEDAYTFYQESTA
MGSDKIHHHHHHMIERLELRNLTVFTGLTLELSPKINVIIGENGTGKTHLLKAAYGLCAGAPLFKNKPDTGDDELEAALTAKLLRLFMPLDDKLGKMHRQGATDQAYLSAKFAGGQKIAATFFNNSKALAVQDRANYEKYQAEAVFIPTKEVLSFMKGFNSLYEKYGLSFDQTYQDICLLLDLPEVRPETLHEKSKWAMAEIEGICGGRFVFYGGGKVTFKTENAEYSANSMAEGFRKAGILSRLLETGAIQPGVSGPLFWDEPESNLNPKLMKLLVQILLELSRNGQQIILATHDYVLLKWFDLLMDKGKDDHVRFHSLYRDADTSEIKVASTEDYLKITPNPIDEAFGFLINQEIENDMGGLGK
